Measured values reported in patent US20120003180A1.

Legend:
[1] = biological target: α5β1 integrin protein, covalently immobilised on the optical biosensor cuvette; assay: optical biosensor (IAsys), α5β1 immobilised
[2] = biological target: α5β1 integrin protein, covalently immobilised on the optical biosensor cuvette; assay: optical biosensor (IAsys), α5β1 immobilised, D3904A DV free in solution; Kd from Koff/Kon
[3] = biological target: α5β1 integrin protein, covalently immobilised on the optical biosensor cuvette; assay: optical biosensor (IAsys), α5β1 immobilised, D3904A DV free in solution
[4] = biological target: α5β1 integrin protein, covalently immobilised on the optical biosensor cuvette; assay: optical biosensor (IAsys), α5β1 immobilised, LG3 free in solution; Kd from Koff/Kon
[5] = biological target: α5β1 integrin protein, covalently immobilised on the optical biosensor cuvette; assay: optical biosensor (IAsys), α5β1 immobilised, LG3 free in solution

Substance | affinity relative to non-mutated DV (fold of the affinity of non-mutated DV) [1] | Kd [2] [µM] | koff [3] [s⁻¹] | Kd [4] [µM] | koff [5] [s⁻¹]
D3904A DV (perlecan Domain V with DGR mutated to AGR), C-terminal 6×His tag (from UniProt P98160 3687-4391) (ligand) | < 0.5 | 0.37 | 0.22 | – | –
LG3, the C-terminal fragment of perlecan Domain V, with C-terminal 6×His tag (from UniProt P98160 4197-4391) (ligand) | – | – | – | 1000 | 1.7
